Source: paper PMC8268124, “Structure and Function of Piezophilic Hyperthermophilic Pyrococcus yayanosii pApase” (International Journal of Molecular Sciences, 2021)

Substrate: Nc1ncnc2c1ncn2[C@@H]1O[C@H](COP(=O)(O)O)[C@@H](OP(=O)(O)O)[C@H]1O
Assay: HPLC of AMP product, initial rates, double reciprocal plot
Format: biochemical, Pyrococcus yayanosii
Details: 20 mM Tris-HCl pH 8.0, 50 mM NaCl, 1.0 mM MnCl2, 1.0 mM DTT, 100 µg/mL BSA, 70 °C
Text: HPLC of AMP product, initial rates, double reciprocal plot on PyapApase

B1: PyapApase (Pyrococcus yayanosii CH1) (protein)
chain: MLALIIHHWDTDGITTAALLVRALELGDFKNMTPPIGEFRFDGKIWAAIERADKLYVLDLNLPQEVEKVPVETLFIDHHIQPRIKNPRVRQVNPALEGKHYPSASLVVSEHFGIFNAWSALGAVGDIGEKAFELSRVEELLKGEGLSREDALKLVELIDSNYIVMDRMAVEEALHVLLNYELRELLEYEPWIRRVEAIKEAVEEVMSSVEERNGFAIVDFESPFNIISKVARKLVWEKGYRGAVVVNRNFHGKAQVYFRVSPKEAERISVLTIIGKLRGLGVNAGGKREVIGCICERGKLDEVLSVIDAYLG
Km: 272 ± 12.6 µM

B2: PyapApase (Pyrococcus yayanosii CH1; R259A) (protein)
chain: MLALIIHHWDTDGITTAALLVRALELGDFKNMTPPIGEFRFDGKIWAAIERADKLYVLDLNLPQEVEKVPVETLFIDHHIQPRIKNPRVRQVNPALEGKHYPSASLVVSEHFGIFNAWSALGAVGDIGEKAFELSRVEELLKGEGLSREDALKLVELIDSNYIVMDRMAVEEALHVLLNYELRELLEYEPWIRRVEAIKEAVEEVMSSVEERNGFAIVDFESPFNIISKVARKLVWEKGYRGAVVVNRNFHGKAQVYFAVSPKEAERISVLTIIGKLRGLGVNAGGKREVIGCICERGKLDEVLSVIDAYLG
Km: 6000 ± 753.4 µM

B3: PyapApase (Pyrococcus yayanosii CH1; G285D) (protein)
chain: MLALIIHHWDTDGITTAALLVRALELGDFKNMTPPIGEFRFDGKIWAAIERADKLYVLDLNLPQEVEKVPVETLFIDHHIQPRIKNPRVRQVNPALEGKHYPSASLVVSEHFGIFNAWSALGAVGDIGEKAFELSRVEELLKGEGLSREDALKLVELIDSNYIVMDRMAVEEALHVLLNYELRELLEYEPWIRRVEAIKEAVEEVMSSVEERNGFAIVDFESPFNIISKVARKLVWEKGYRGAVVVNRNFHGKAQVYFRVSPKEAERISVLTIIGKLRGLGVNADGKREVIGCICERGKLDEVLSVIDAYLG
Km: 4500 ± 607.7 µM

B4: PyapApase (Pyrococcus yayanosii CH1; D12A) (protein)
chain: MLALIIHHWDTAGITTAALLVRALELGDFKNMTPPIGEFRFDGKIWAAIERADKLYVLDLNLPQEVEKVPVETLFIDHHIQPRIKNPRVRQVNPALEGKHYPSASLVVSEHFGIFNAWSALGAVGDIGEKAFELSRVEELLKGEGLSREDALKLVELIDSNYIVMDRMAVEEALHVLLNYELRELLEYEPWIRRVEAIKEAVEEVMSSVEERNGFAIVDFESPFNIISKVARKLVWEKGYRGAVVVNRNFHGKAQVYFRVSPKEAERISVLTIIGKLRGLGVNAGGKREVIGCICERGKLDEVLSVIDAYLG
Km: 790 ± 47.7 µM | kcat: 1.7 ± 0.3 s⁻¹ | kcat/Km: 2160 M⁻¹ s⁻¹

B5: PyapApase (Pyrococcus yayanosii CH1; K287A) (protein)
chain: MLALIIHHWDTDGITTAALLVRALELGDFKNMTPPIGEFRFDGKIWAAIERADKLYVLDLNLPQEVEKVPVETLFIDHHIQPRIKNPRVRQVNPALEGKHYPSASLVVSEHFGIFNAWSALGAVGDIGEKAFELSRVEELLKGEGLSREDALKLVELIDSNYIVMDRMAVEEALHVLLNYELRELLEYEPWIRRVEAIKEAVEEVMSSVEERNGFAIVDFESPFNIISKVARKLVWEKGYRGAVVVNRNFHGKAQVYFRVSPKEAERISVLTIIGKLRGLGVNAGGAREVIGCICERGKLDEVLSVIDAYLG
Km: 720 ± 33.1 µM | kcat: 17.10 ± 2.1 s⁻¹ | kcat/Km: 23800 M⁻¹ s⁻¹
